Source: the supplement of paper PMC9112550, “Optimization of the antimicrobial peptide Bac7 by deep mutational scanning” (BMC Biology, 2022)

test system: Escherichia coli TOP10; experiment: shrunken log2 fold change of peptide-encoding DNA abundance (4.5 h post-induction vs induction); higher = less antimicrobial activity (less host growth inhibition); details: time post-induction: 4.5 h; library: site-saturation at positions 5, 18, 19, 20
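Note: peptides expressed intracellularly from a pBAD plasmid library in pooled LB shake-flask culture, induced with 0.3% L-arabinose, DNA abundance read by NGS, three biological replicates, DESeq2 with apeglm shrinkage.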

Sequence | shrunken log2 fold change
RRIRMRPPRLPRPRPRPLYTPRP | -0.116
RRIRMRPPRLPRPRPRPMADPRP | 1.11
RRIRMRPPRLPRPRPRPMARPRP | 0.465
RRIRMRPPRLPRPRPRPMCDPRP | 0.709
RRIRMRPPRLPRPRPRPMDKPRP | 0.3
RRIRMRPPRLPRPRPRPMDRPRP | -0.0181
RRIRMRPPRLPRPRPRPMGAPRP | 1.18
RRIRMRPPRLPRPRPRPMGCPRP | 0.0612
RRIRMRPPRLPRPRPRPMGPPRP | 0.168
RRIRMRPPRLPRPRPRPMHCPRP | 0.0428
RRIRMRPPRLPRPRPRPMHVPRP | -0.207
RRIRMRPPRLPRPRPRPMIWPRP | 0.237
RRIRMRPPRLPRPRPRPMLHPRP | 0.0756
RRIRMRPPRLPRPRPRPMLWPRP | 0.19
RRIRMRPPRLPRPRPRPMNFPRP | 0.032
RRIRMRPPRLPRPRPRPMPKPRP | 0.0834
RRIRMRPPRLPRPRPRPMQIPRP | 0.0553
RRIRMRPPRLPRPRPRPMTAPRP | 0.198
RRIRMRPPRLPRPRPRPMVKPRP | 0.0401
RRIRMRPPRLPRPRPRPNCPPRP | -0.0204

Sequence | shrunken log2 fold change
RRIRMRPPRLPRPRPRPNCVPRP | -0.00674
RRIRMRPPRLPRPRPRPNETPRP | -0.0123
RRIRMRPPRLPRPRPRPNFYPRP | -0.00797
RRIRMRPPRLPRPRPRPNGLPRP | 0.062
RRIRMRPPRLPRPRPRPNGSPRP | -0.000925
RRIRMRPPRLPRPRPRPNHKPRP | -0.391
RRIRMRPPRLPRPRPRPNKSPRP | 0.0117
RRIRMRPPRLPRPRPRPNLIPRP | -0.0317
RRIRMRPPRLPRPRPRPNLLPRP | -0.103
RRIRMRPPRLPRPRPRPNLWPRP | 0.119
RRIRMRPPRLPRPRPRPNLYPRP | -0.00588
RRIRMRPPRLPRPRPRPNNYPRP | 0.0147
RRIRMRPPRLPRPRPRPNPCPRP | 0.169
RRIRMRPPRLPRPRPRPNPNPRP | 0.394
RRIRMRPPRLPRPRPRPNQGPRP | -0.0312
RRIRMRPPRLPRPRPRPNRCPRP | 0.172
RRIRMRPPRLPRPRPRPNRWPRP | 0.394
RRIRMRPPRLPRPRPRPNTHPRP | 0.136
RRIRMRPPRLPRPRPRPNVTPRP | 0.0238
RRIRMRPPRLPRPRPRPNWKPRP | -0.0351

Sequence | shrunken log2 fold change
RRIRMRPPRLPRPRPRPNYLPRP | -0.212
RRIRMRPPRLPRPRPRPNYNPRP | -0.678
RRIRMRPPRLPRPRPRPPCCPRP | 0.928
RRIRMRPPRLPRPRPRPPDEPRP | 2.96
RRIRMRPPRLPRPRPRPPESPRP | 2.5
RRIRMRPPRLPRPRPRPPETPRP | 0.807
RRIRMRPPRLPRPRPRPPFHPRP | 0.0707
RRIRMRPPRLPRPRPRPPFNPRP | 0.175
RRIRMRPPRLPRPRPRPPGQPRP | 1.24
RRIRMRPPRLPRPRPRPPHDPRP | 1.47
RRIRMRPPRLPRPRPRPPHRPRP | 0.567
RRIRMRPPRLPRPRPRPPKDPRP | 0.622
RRIRMRPPRLPRPRPRPPKKPRP | 1.01
RRIRMRPPRLPRPRPRPPKTPRP | 0.891
RRIRMRPPRLPRPRPRPPMIPRP | -0.0431
RRIRMRPPRLPRPRPRPPPPPRP | 2.05
RRIRMRPPRLPRPRPRPPPRPRP | 2.36
RRIRMRPPRLPRPRPRPPQFPRP | 0.0882
RRIRMRPPRLPRPRPRPPQRPRP | 1.09
RRIRMRPPRLPRPRPRPPSGPRP | 0.525
